This is an account of results in publication PMC5300155, “Biochemical and biophysical investigations of the interaction between human glucokinase and pro-apoptotic BAD” (PLoS ONE, 2017).

Data set [1] deals with T1, GCK (Homo sapiens, UniProt P35557).
T1 construct: hexahistidine (N); made in house; host or cells: glucokinase auxotroph BM5340(DE3)
T1 sequence (P35557 1-465): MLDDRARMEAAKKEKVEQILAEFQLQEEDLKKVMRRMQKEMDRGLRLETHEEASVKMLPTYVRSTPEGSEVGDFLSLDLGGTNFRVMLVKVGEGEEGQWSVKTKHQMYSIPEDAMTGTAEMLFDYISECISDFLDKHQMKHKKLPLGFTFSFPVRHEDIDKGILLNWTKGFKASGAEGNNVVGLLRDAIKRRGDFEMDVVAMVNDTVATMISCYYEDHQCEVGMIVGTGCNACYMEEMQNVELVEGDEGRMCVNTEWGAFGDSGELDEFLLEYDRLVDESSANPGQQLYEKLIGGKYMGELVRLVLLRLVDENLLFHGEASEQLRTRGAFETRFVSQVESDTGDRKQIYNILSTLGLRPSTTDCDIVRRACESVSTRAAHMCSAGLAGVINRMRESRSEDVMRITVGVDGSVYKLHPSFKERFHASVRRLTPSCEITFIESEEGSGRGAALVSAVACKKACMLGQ
As to the kind of experiment: GCK activity, microplate G6PDH-linked assay as described by Szlyk et al. (37°C). The following applies: GCK 7.5 nM; for Effect on GCK Vmax: either assay (routine and Szlyk microplate), peptide 5 μM, 37°C in microplate assay. Type of data set: biochemical. The procedure: Steady state kinetics were also performed as described by Szlyk, et al.[13]. Briefly, G6PDH-linked assays were performed in clear 96-well plates at 37°C with a SpectraMax M5 microplate reader (Molecular Devices) recording absorbance at 340 nm every 30 s. Reaction mixtures contained GCK (7.5 nM), HEPES (100 mM, pH 7.4), KCl (150 mM), MgCl2(6 mM), DTT (1 mM), NAD (1 mM), BSA (0.05%), G6PDH (2.5 U), glucose (0.5–100 mM), and ATP (5 mM) in the presence or absence of BAD-GST S118D variant (5 μM) or phosphorylated BAD BH3 peptide (5 μM) in a final volume of 100 μL.
GCK (7.5 nM) was assayed in the presence of A. S118D BADGST (5 μM) or B. pBH3 (5 μM) in a 96 well plate using a microplate reader. Buffer conditions were as follows: Ref [13]: 100 mM Hepes, pH 7.4; 150 mM KCl; 1 mM NAD+; 0.05% BSA; 6 mM MgCl2; 1 mM DTT; 2.5 U G6PDH; 5 mM ATP. Optimal GCK conditions: 100 mM Hepes, pH 7.4; 150 mM KCl; 1 mM NADP+; 6 mM MgCl2; 10 mM DTT; 1.5 U G6PDH; 5 mM ATP. (EPS) Click here for additional data file.

Data set [2] addresses T2, human pancreatic GCK (Homo sapiens, UniProt P35557).
T2 construct: hexahistidine (N); made in house; host or cells: glucokinase auxotroph BM5340(DE3)
T2 sequence (P35557 1-465): T1 sequence (P35557 1-465)
Briefly: Size-exclusion chromatography of mixtures with GCK. The class given is binding. Conditions: mixtures across a range of protein concentrations; BAD buffer pH 8.5, 4°C. The procedure: Size-exclusion chromatography was performed on a HiPrep 16/60 Sephacryl S-200 HR column (GE Healthcare) connected to a Bio-Rad DuoFlow FPLC. The column was calibrated with thyroglobulin (669 kDa), γ-globulin (158 kDa), ovalbumin (43 kDa), myoglobin (17 kDa), and vitamin B12 (1.35 kDa). All proteins were analyzed in BAD buffer (0.1 M Tris, 0.1 M KCl, 0.5 M arginine, 2.5 mM CHAPS, 5 mM TCEP, 10% glycerol, pH 8.5) at a flow rate of 0.02 mL/min at 4°C. Protein samples were concentrated to 800 μL and filtered through 0.2 μm filters before injection onto the size-exclusion column. For complex formation, equimolar mixtures of proteins were added to BAD buffer in a final volume of 800 μL and incubated on ice 30 min prior to injection onto the column.

In data set [3] the test system is glucokinase (GCK). As to the kind of experiment: Chemical cross-linking (dimethyl pimelimidate) with GCK. Type of data set: binding, human. Conditions: DMP, 50-fold molar excess, room temperature 1 h; 1:1 mixture, 40 μM protein; SDS-PAGE. The procedure: Protein samples were cross-linked with dimethyl pimelimidate (DMP). Aqueous stocks of cross-linkers were added to protein samples in a 50-fold molar excess and incubated at room temperature 1 h. Mixtures contained 20 μM protein (GCK or BAD) or 40 μM protein (1:1 mixture of glucokinase and BAD) in BAD buffer (0.1 M Tris, 0.1 M KCl, 0.5 M arginine, 2.5 mM CHAPS, 5 mM TCEP, 10% glycerol, pH 8.5). Reactions were immediately separated on SDS-PAGE and visualized with Coomassie blue staining.

The nature of data set [4]: Circular dichroism spectroscopy (secondary structure). Conditions: far UV CD, 25°C, pH 7.8, 3–15 μM, CDPro. Type of data set: physicochemical. The procedure: Proteins were dialyzed overnight into potassium phosphate buffer (50 mM, pH 7.8) containing KCl (50 mM), glycerol (5% v/v), and TCEP (4 mM). CD spectra were recorded on an AVIV 202 CD spectrometer at 25°C with protein concentrations ranging from 3–15 μM. Spectra were recorded from 200–260 nm in 10 mm pathlength cuvettes using a 1 nm step resolution and 3 s integration time. Three scans were recorded per sample, averaged, and baseline subtracted with appropriate buffer controls. CD signals were converted to molar ellipticity and deconvoluted using CDPro Software.

A short description of data set [5]: Aggregation in refolding buffers (spin-filter assay). The class given is physicochemical. Conditions: CHAPS (2.5 mM) and arginine (0.5 M). On the procedure:
To determine buffer conditions for BAD-GST refolding, we made use of a spin-filter assay developed by Bondos and Bicknell. Purified protein was collected after size-exclusion chromatography and diluted into test buffers containing various stabilizers and detergents, including Triton-X (0.2%), CHAPS (1.25–6.0 mM), arginine (0.1–0.6 M), glycerol (20%) or urea (1.5 M). After overnight incubation at 4°C, diluted protein was filtered across a 100,000 MWCO microconcentrator (Amicon Ultra 0.5, EMD Millipore) at 14,000 x g. Concentrate was considered aggregated protein, while flow through was considered non-aggregated protein. Concentrate and flow through were resuspended to equal volumes and analyzed via SDS-PAGE; protein was visualized with SYPRO Ruby stain on a fluorescence imaging scanner. ImageJ software was used to measure ratios of non-aggregated to aggregated protein [26].

The conditions of data set [6]: produced in Escherichia coli; ref [30]; cited from earlier work. The text has this: To facilitate biochemical characterization of the BAD:GCK complex, we sought a method to produce functional, recombinant human BAD. Several groups have used microbial hosts to produce BAD, however, functional characterization of the resulting protein was limited.

Entries after “also recorded” stand apart in the source; their conditions may differ.

For the molecule “NLWAAQRYGRELRRM(p)SDKFVD [pBH3, 21-residue phosphorylated peptide containing the BH3 domain of BAD]”, the “Effect on GCK kinetics under Szlyk et al. buffer conditions” value in data set [1] (S118D BADGST 5 μM, or pBH3 5 μM, 96 well plate, S2 Fig) is “did not increase BAD’s effects on GCK kinetics”. For the same molecule, the “Effect on GCK Vmax” value in data set [1] (listed as phosphorylated BAD BH3 peptide) is “no statistically significant difference in the GCK Vmax value”; in data set [1] (listed as phosphorylated BH3 peptide), “lack of an increase in the GCK Vmax value”.

B1: BAD-GST: recombinant human BAD with N-terminal hexahistidine tag and C-terminal GST fusion, TEV consensus sequence between (protein)
chain: MFQIPEFEPSEQEDSSSAERGLGPSPAGDGPSGSGKHHRQAPGLLWDASHQQEQPTSSSHHGGAGAVEIRSRHSSYPAGTEDDEGMGEEPSPFRGRSRSAPPNLWAAQRYGRELRRMSDEFVDSFKKGLPRPKSAGTATQMRQSSSWTRVFQSWWDRNLGRGSSAPSQ
modifications: left off: His6, N-terminal, state not stated | GST, C-terminal, kept
On to B1, for which, in data set [2], the “Complex with GCK by size-exclusion chromatography” value is listed as “No evidence of a higher molecular weight complex is observed; also recorded: provides no evidence of complex formation”. Also, the “Complex with GCK by chemical cross-linking” value in data set [3] is on record as “does not support the formation of a BAD-GST:GCK complex”. In data set [4], the Random coil content is listed as 30%, the α-helical content worked out at 10% and the β-sheet content worked out at 37%. Also, the “Aggregation, effect of refolding additives” value in data set [5] was “essential to prevent aggregation of recombinant BAD”. In data set [6], the “Proteolysis of recombinant BAD” value is recorded as “highly susceptible to proteolysis”.
